The results in this text go back to publication PMC9187739, “MIF homolog d-dopachrome tautomerase (D-DT/MIF-2) does not inhibit accumulation and toxicity of misfolded SOD1” (Scientific Reports, 2022).

For the assay, the target named is T1, human SOD1^G93A (Zn/Cu superoxide dismutase, glycine to alanine at position 93) (human, UniProt P00441 1-154, G93A).
T1 construct: Zn/Cu superoxide dismutase (SOD1), human, with the ALS-linked mutation G93A; The introduction calls SOD1 a 32 kDa homodimer; also called mutant SOD1^G93A; mutant SOD1; source: E. coli BL-21, grown without Zn2+ and Cu2+ supplements, purified to homogeneity under non-denaturing conditions
T1 sequence (P00441 whole entry G94A): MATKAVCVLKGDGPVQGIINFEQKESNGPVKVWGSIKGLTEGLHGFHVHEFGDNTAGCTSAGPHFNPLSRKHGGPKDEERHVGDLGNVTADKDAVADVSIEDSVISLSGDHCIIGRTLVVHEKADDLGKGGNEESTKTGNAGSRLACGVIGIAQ
Description: co-IP; purified SOD1^G93A (2 µg) incubated with recombinant D-DT (0.2, 0.5, 1, 2, 5 and 10 µg); immunoprecipitation overnight at 4 °C with B8H10 antibody (misfolded SOD1) crosslinked to protein G Dynabeads; IP buffer 0.05 M Tris pH 7.4, 0.4 M NaCl, 0.5% Nonidet P-40; bound and unbound fractions immunoblotted for SOD1 and D-DT. The settings on record: both partners purified.

B1: recombinant human D-dopachrome tautomerase (D-DT/MIF-2) (enzyme)
chain: PFLELDTNLPANRVPAGLEKRLCAAAASILGKPADRVNVTVRPGLAMALSGSTEPCAQLSISSIGVVGTAEDNRSHSAHFFEFLTKELALGQDRILIRFFPLESWQIGKIGTVMTFL
notes: D-dopachrome tautomerase (D-DT, MIF-2), human; also called recombinant D-DT; source: recombinant
For the molecule B1, the binding result is recorded as “binds”.
